According to patent US20080260812A1 (TAKAMI MATSUYAMA C O KAGOSHIMA UNIVERSITY, published 2008):

How the values were obtained:
[1] = target: T1, folate receptor alpha (FR-α) (UniProt P15328 25-234, limits assumed); assay: flow cytometry on KB cells, fluorescence-labeled anti-mouse Ig
T1 construct: whole, on cells

[2] = target: T2, folate receptor beta (FR-β) (human, UniProt P14207 17-230); assay: flow cytometry on FR-β gene-transfected B300-19 cells
T2 construct: whole, on cells; also called FR-β antigen; human FR-β antigen
T2 sequence (P14207 17-230): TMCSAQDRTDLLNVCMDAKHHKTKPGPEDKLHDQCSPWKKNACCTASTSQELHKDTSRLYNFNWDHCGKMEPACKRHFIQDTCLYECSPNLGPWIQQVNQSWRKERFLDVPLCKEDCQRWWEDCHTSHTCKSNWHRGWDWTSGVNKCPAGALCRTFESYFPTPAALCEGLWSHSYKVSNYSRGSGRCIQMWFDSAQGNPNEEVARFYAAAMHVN
Protocol: Using a mixture of 20 μl of lipofectamine (Gibco BRL), 1 μg of the purified pEF vector insert, and 1 ml of a Hank's balanced salt solution, the FR-β gene was transfected into B300-19 cells which were previously prepared at 1×10⁵ in 24 wells. […] Namely, 5×10⁵ B3001-9 cells were reacted with 0.1 ml of the FR-β antibody (1 mg/ml) at 4° C. for 30 minutes. The cells were washed 3 times with PBS containing 0.1% NaN₃ and 10% fetal calf serum, after which they were reacted with a fluorescence-labeled goat anti-mouse Ig antibody (BIOSOURCE) at 4° C. for 30 minutes. Then, the cells were washed twice with PBS containing 0.1% NaN₃ and 1% fetal calf serum, after which fluorescence of the cells was assayed using EPICS Elite (Coulter).

T1 sequence (P15328 25-234 limits assumed): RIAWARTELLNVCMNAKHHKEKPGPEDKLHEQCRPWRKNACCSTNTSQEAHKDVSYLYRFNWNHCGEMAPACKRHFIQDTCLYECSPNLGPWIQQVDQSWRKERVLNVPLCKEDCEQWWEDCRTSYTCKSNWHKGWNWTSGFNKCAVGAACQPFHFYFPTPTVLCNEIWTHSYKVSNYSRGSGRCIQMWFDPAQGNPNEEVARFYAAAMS

Binder | binding result [1] | binding result [2]
IgG-type FR-β monoclonal antibody clone 36 (antibody, V domains shown, also called clone 36 antibody; IgG monoclonal antibody against a human FR-β antigen (clone 36)) VH: QVQLQQSGAELMKPGASLKISCKATGYTFSSYWIEWVKQRPGHGLQWIGEILPGSGSSNYNEKFKGKATFTADTSSNTAYMQLSSLTSEDSAVYYCARRGSSGSYFAMDYWGQGTSVTVSS VL: DIQMTQSSSSFSVSLGDRVTITCKASEDIYNRLAWYQQKPGNAPRLLISGATSLETGVPLRFSGSGSGKDYTLSITSLQTEDIATYYCQQYWSTPWTFGGGTKLEIK | no binding | 
IgG-type FR-β monoclonal antibody clone 94b (antibody, V domains shown) VH: EVQLQQSGAELVKPGASVRLSCTASGFNIKDTYMYWVKQRPEQGLEWIGRLDPANGNTRYDPKFQGKATITSDTSSNTAYLQLSSLTSEDTAVYYCAGDYPIIDYWGQGTTLTVSS VL: DIVMSQSPSSLAVSAGEKVTMSCKSSQSLLNSRTRKTYLAWYQQKPGQSPKLLIYWASTRESGVPDRFTGSGSGTEFTLTISSVQAEDLAVYYCKQSYNLWTFGGGTKLEIKR | no binding | binds
